This note sets out measurements from patent US20250325702A1, “COMPOSITIONS AND METHODS FOR EDITING A TRANSTHYRETIN GENE” (Beam Therapeutics Inc., priority 2022, published 2025).

For series [1], the target named is purified cyno TTR protein (Abcam, ab239566) (cyno (Macaca fascicularis)) (UniProt Q8HXW1). Briefly: sandwich ELISA; known concentrations of purified cyno TTR run on the human TTR kit, read against the human TTR standards.
The subject of a further series is human TTR gene. Briefly: Base editing in primary human hepatocytes (gRNA + ABE8.8 mRNA transfection, NGS of amplicons). The series is classed as cell-based. The settings on record: for Human hepatocytes- Editing % 625, rep 1 / Human hepatocytes- Editing % 625, rep 2: 625 ng/RNA/mL; for Human hepatocytes- Editing % 625, rep 1 / Human hepatocytes- Editing % 625, rep 2 / Human hepatocytes- Editing % 1250, rep 1 / Human hepatocytes- Editing % 1250, rep 2 / Human hepatocytes- Editing % 2500, rep 1 / Human hepatocytes- Editing % 2500, rep 2: gRNA + ABE8.8 mRNA 1:1; for Human hepatocytes- Editing % 1250, rep 1 / Human hepatocytes- Editing % 1250, rep 2: 1250 ng/RNA/mL; for Human hepatocytes- Editing % 2500, rep 1 / Human hepatocytes- Editing % 2500, rep 2: 2500 ng/RNA/mL; for editing activity (percent splice editing) in human hepatocytes: primary human hepatocytes, ABE8.8 mRNA 1:1, three days after transfection. The text has this:
In this example, gRNA sequences were identified that permit ABE8.8 (and other ABE variants containing Streptococcus pyogenes Cas9, such as ABE7.10, or another Cas protein that can use the NGG PAM) to either: 1) disrupt the start codon, and/or 2) disrupt splice sites, whether donors or acceptors, via A→G editing within its editing window (roughly positions 4 to 7 in the 20-nt protospacer region of DNA). Five sequences were identified throughout the human TTR gene that disrupt TTR expression (Table 8). gRNAs were synthesized matching each of the protospacer sequences and otherwise conforming to the standard 100-nt Streptococcus pyogenes CRISPR gRNA sequence, with each gRNA molecule having a minimal degree of chemical modifications (specified in Table 8). Each of the gRNAs was co-transfected with an equivalent amount of in vitro transcribed ABE8.8 mRNA (1:1 ratio by molecular weight) into primary human hepatocytes via MessengerMax reagent (Lipofectamine), using various dilutions (2500,1250, 625 ng/RNA/mL) to assess for editing activity at different concentrations of test article.
(§1) For orthogonal protospacer sequences of the corresponding cynomolgus monkey TTR gene sequence, each gRNA was also transfected with an equivalent amount of ABE8.8 mRNA (1:1 ratio by molecular weight) into primary cynomolgus hepatocytes at 5000, 2500, 1250, 625, 312.5, and 156.25 ng/RNA/mL. The mRNA, and corresponding amino acid, sequence of the ABE8.8 (MA004) used in shown below in Table 18. Three days after transfection, genomic DNA was harvested from the hepatocytes, and assessed for base editing with next-generation sequencing of PCR amplicons generated around the target splice site. […] See FIGS. 5A-5C, FIG. 6, and Tables 9-10.

The subject of series [2] is on-target site and candidate off-target sites. Briefly: Validation of candidate off-target sites in primary human hepatocytes. The class given is cell-based. The following applies: for editing efficiency at the on-target site: gRNA + ABE8.8 mRNA. The protocol: Several candidate off-target sites were analyzed for off-target editing in human primary hepatocytes.
For the next series, the system named is transthyretin (TTR) gene. Briefly: Guide RNA screen in HEK293T cells: splice site disruption by base editors and bhCas12b nuclease (Example 5). The following applies: editor mRNA + sgRNA. The series is classed as cell-based, human. The protocol:
The guide RNAs listed in Table 1 were screened for use in editing the transthyretin (TTR) gene by disrupting splice sites (FIG. 29A-29C) or using a bhCas12b nuclease strategy (FIG. 30). 15 total guide RNAs were screened. The screen was performed in HEK293T cells using based editors and bhCas12b delivered as mRNA and the sgRNAs. The guide RNAs sgRNA_361 and sgRNA_362 worked well in splice site disruption (FIGS. 29A-29C) using ABE and/or BE4. Several of the gRNAs functioned well as bhCas 12b nuclease gRNAs.
Cells were cultured at 37° C. with 5% CO2. HEK293T cells [CLBTx013, American Type Cell Culture Collection (ATCC)] were cultured in Dulbecco's modified Eagles medium plus Glutamax (10566-016, Thermo Fisher Scientific) with 10% (v/v) fetal bovine serum (A31606-02, Thermo Fisher Scientific). Cells were tested negative for mycoplasma after receipt from supplier.
HEK293T cells were seeded onto 48-well well Poly-D-Lysine treated BioCoat plates (Corning) at a density of 35,000 cells/well and transfected 18-24 hours after plating. Cells were counted using a NucleoCounter NC-200 (Chemometec). A solution was prepared containing Opti-MEM reduced serum media (ThermoFisher Scientific), the base editor, nuclease, or control mRNA, and sgRNA. The solution was combined with Lipofectamine MessengerMAX (ThermoFisher) in Opti-MEM reduced serum media and left to rest at room temperature for 15 min. […]

Series [3] deals with cynomolgus monkey TTR gene. Briefly: Base editing in primary cynomolgus hepatocytes (gRNA + ABE8.8 mRNA transfection, NGS). The class given is cell-based. The following applies: for Cyno hepatocytes- Editing % 156.25: 156.25 ng/RNA/mL; for Cyno hepatocytes- Editing % 156.25 / Cyno hepatocytes- Editing % 312.5 / Cyno hepatocytes- Editing % 625 / Cyno hepatocytes- Editing % 1250 / Cyno hepatocytes- Editing % 2500 / Cyno hepatocytes- Editing % 5000: gRNA + ABE8.8 mRNA 1:1; for Cyno hepatocytes- Editing % 312.5: 312.5 ng/RNA/mL; for Cyno hepatocytes- Editing % 625: 625 ng/RNA/mL; for Cyno hepatocytes- Editing % 1250: 1250 ng/RNA/mL; for Cyno hepatocytes- Editing % 2500: 2500 ng/RNA/mL; for Cyno hepatocytes- Editing % 5000: 5000 ng/RNA/mL; for editing activity in cynomolgus primary hepatocytes: ABE8.8 mRNA 1:1, three days after transfection. The protocol: as §1

[4] abbreviates: GA459 On-target site (SEQ ID NO: 468).
Setting [5] is: GA459 off-target site OT1 (SEQ ID NO: 1095).
The mark [6] stands for this setting: GA459 off-target site OT3 (SEQ ID NO: 1096).

In the oligonucleotide strings, read from the 5' end, every base follows the letter of its sugar. An asterisk marks phosphorothioate; unmarked linkages are phosphodiester. Other units and linkages are bracketed, terminal groups are in braces. A string of capitals states the bases alone. m = 2'-O-methyl; r = 2'-OH (RNA)

As for “antibodies of the human prealbumin (TTR) ELISA kit (Abcam, ab231920) (antibody)”, the cross-reactivity in series [1] was determined as 4%.

For the molecule “GA457: guide RNA, spacer 5′-GCCAUCCUGCCAAGAAUGAG-3′ (SEQ ID NO: 472), human TTR”, in the series on human TTR gene, the “Human hepatocytes- Editing % 625, rep 1” value is given as 17.24%; the “Human hepatocytes- Editing % 625, rep 2” value came to 15.39%; the “Human hepatocytes- Editing % 1250, rep 1” value was determined as 26.49%; the “Human hepatocytes- Editing % 1250, rep 2” value was determined as 24.86%. Also, in the series with human TTR gene, the “Human hepatocytes- Editing % 2500, rep 1” value amounted to 33.96%; the “Human hepatocytes- Editing % 2500, rep 2” value was 31.31%; the “editing activity (percent splice editing) in human hepatocytes” value is “high editing activity”. Also, the “net editing at off-target sites” value in series [2] (47 candidate off-target sites, primary human hepatocytes) is recorded as “less than 0.4%”. In addition, the “editing efficiency at the on-target site” value in series [2] (primary human hepatocytes) is reported as “high editing efficiency”.

B1: sgRNA_362: guide RNA, SEQ ID NO: 480 (nucleic acid)
guide: mU*mA*mC*rUrCrArCrCrUrCrUrGrCrArUrGrCrUrCrArGrUrUrUrUrArGrArGrCrUrArGrArArArUrArGrCrArArGrUrUrArArArArUrArArGrGrCrUrArGrUrCrCrGrUrUrArUrCrArArCrUrUrGrArArArArArGrUrGrGrCrArCrCrGrArGrUrCrGrGrUrGrCmU*mU*mU*rU
For the molecule B1, the “splice site disruption using ABE and/or BE4” value in the series on transthyretin (TTR) gene is listed as “worked well”.

B2: GA459: guide RNA, spacer 5′-GCAACUUACCCAGAGGCAAA-3′ (SEQ ID NO: 474) (nucleic acid)
guide: GCAACTTACCCAGAGGCAAAGTTTTAGAGCTAGAAATAGCAAGTTAAAATAAGGCTAGTCCGTTATCAACTTGAAAAAGTGGCACCGAGTCGGTGCTTTT
modifications: chemistry not given here
With B2, in the series on human TTR gene, the “Human hepatocytes- Editing % 625, rep 1” value stood at 3.79%; the “Human hepatocytes- Editing % 625, rep 2” value was 3.89%; the “Human hepatocytes- Editing % 1250, rep 1” value was determined as 5.46%; the “Human hepatocytes- Editing % 1250, rep 2” value is given as 6.15%. In the series with human TTR gene, the “Human hepatocytes- Editing % 2500, rep 1” value is given as 8.5% and the “Human hepatocytes- Editing % 2500, rep 2” value came out at 8.69%. The “off-target editing observed at candidate off-target sites” value (“off-target editing observed” below) in series [2] is reported as “little to no off-target editing”. Further, in series [2] (setting [4]), the “SUM Editing %- Human Primary Hepatocytes Treat rep 1” value was determined as 14.17% and the “SUM Editing %- Human Primary Hepatocytes Treat rep 2” value came out at 14.29%. In series [2] (setting [5]), the “SUM Editing %- Human Primary Hepatocytes Treat rep 1” value is 1.19% and the “SUM Editing %- Human Primary Hepatocytes Treat rep 2” value came out at 1.25%. Further, in series [2] (setting [6]), the “SUM Editing %- Human Primary Hepatocytes Treat rep 1” value came out at 0.98% and the “SUM Editing %- Human Primary Hepatocytes Treat rep 2” value is on record as 0.82%. Moreover, the “editing efficiency at the on-target site” value in series [2] (primary human hepatocytes) was “high editing efficiency”.

B3: GA461: guide RNA, spacer 5′-UACUCACCUCUGCAUGCUCA-3′ (SEQ ID NO: 476) (nucleic acid)
guide: TACTCACCTCTGCATGCTCAGTTTTAGAGCTAGAAATAGCAAGTTAAAATAAGGCTAGTCCGTTATCAACTTGAAAAAGTGGCACCGAGTCGGTGCTTTT
modifications: chemistry not given here
Turning to B3, in the series with human TTR gene, the “Human hepatocytes- Editing % 625, rep 1” value was determined as 21.81%; the “Human hepatocytes- Editing % 625, rep 2” value amounted to 22.31%; the “Human hepatocytes- Editing % 1250, rep 1” value was found to be 32.82%; the “Human hepatocytes- Editing % 1250, rep 2” value is reported as 32.38%. In addition, in the series with human TTR gene, the “Human hepatocytes- Editing % 2500, rep 1” value is given as 40.42%; the “Human hepatocytes- Editing % 2500, rep 2” value was found to be 39.43%; the “editing activity (percent splice editing) in human hepatocytes” value is listed as “high editing activity”. Also, the “off-target editing observed” value in series [2] is given as “little to no off-target editing”. Further, the “editing efficiency at the on-target site” value in series [2] (primary human hepatocytes) is “high editing efficiency”. In addition, in series [3], the “Cyno hepatocytes- Editing % 156.25” value came out at 0.07%, the “Cyno hepatocytes- Editing % 312.5” value is 7.45%, the “Cyno hepatocytes- Editing % 625” value came out at 13.16% and the “Cyno hepatocytes- Editing % 1250” value worked out at 19.46%. Moreover, in series [3], the “Cyno hepatocytes- Editing % 2500” value is reported as 29.8%, the “Cyno hepatocytes- Editing % 5000” value came to 37.53% and the “editing activity in cynomolgus primary hepatocytes” value was “high editing activity”.

B4: sgRNA_361: guide RNA, SEQ ID NO: 479 (nucleic acid)
guide: mU*mA*mU*rArGrGrArArArArCrCrArGrUrGrArGrUrCrGrUrUrUrUrArGrArGrCrUrArGrArArArUrArGrCrArArGrUrUrArArArArUrArArGrGrCrUrArGrUrCrCrGrUrUrArUrCrArArCrUrUrGrArArArArArGrUrGrGrCrArCrCrGrArGrUrCrGrGrUrGrCmU*mU*mU*rU
With B4, in the series with transthyretin (TTR) gene, the “splice site disruption using ABE and/or BE4” value was “worked well”.

B5: GA460: guide RNA, spacer 5′-UAUAGGAAAACCAGUGAGUC-3′ (SEQ ID NO: 475) (nucleic acid)
guide: TATAGGAAAACCAGTGAGTCGTTTTAGAGCTAGAAATAGCAAGTTAAAATAAGGCTAGTCCGTTATCAACTTGAAAAAGTGGCACCGAGTCGGTGCTTTT
modifications: chemistry not given here
Consider B5, for which, in the series with human TTR gene, the “Human hepatocytes- Editing % 625, rep 1” value is 23.77%; the “Human hepatocytes- Editing % 625, rep 2” value worked out at 22.27%; the “Human hepatocytes- Editing % 1250, rep 1” value was found to be 38.33%; the “Human hepatocytes- Editing % 1250, rep 2” value amounted to 35.8%. Also, in the series with human TTR gene, the “Human hepatocytes- Editing % 2500, rep 1” value turned out to be 47.61%; the “Human hepatocytes- Editing % 2500, rep 2” value was 47.79%; the “editing activity (percent splice editing) in human hepatocytes” value was “high editing activity”. For the same molecule, the “off-target editing observed” value in series [2] is reported as “little to no off-target editing”. Further, the “editing efficiency at the on-target site” value in series [2] (primary human hepatocytes) was “high editing efficiency”. Also, in series [3], the “Cyno hepatocytes- Editing % 156.25” value was found to be 1.62%, the “Cyno hepatocytes- Editing % 312.5” value came to 11.22%, the “Cyno hepatocytes- Editing % 625” value turned out to be 18.44% and the “Cyno hepatocytes- Editing % 1250” value came out at 31.71%. Also, in series [3], the “Cyno hepatocytes- Editing % 2500” value came to 38.25%, the “Cyno hepatocytes- Editing % 5000” value turned out to be 40.16% and the “editing activity in cynomolgus primary hepatocytes” value is on record as “high editing activity”.
